Reference: US20060172377, “Site-specific serine recombinases and methods of their use” (published 2006)

Assays:
Settings in all cases: chain copies: 4
Bxb1 recombinase = molecular target: T1, Bxb1 recombinase (Mycobacterium smegmatis phage Bxb1); assay: cell_activity; partner of N5, NIH3T3; chromosomal integration also seen (Tables 1-2)
T1 chain: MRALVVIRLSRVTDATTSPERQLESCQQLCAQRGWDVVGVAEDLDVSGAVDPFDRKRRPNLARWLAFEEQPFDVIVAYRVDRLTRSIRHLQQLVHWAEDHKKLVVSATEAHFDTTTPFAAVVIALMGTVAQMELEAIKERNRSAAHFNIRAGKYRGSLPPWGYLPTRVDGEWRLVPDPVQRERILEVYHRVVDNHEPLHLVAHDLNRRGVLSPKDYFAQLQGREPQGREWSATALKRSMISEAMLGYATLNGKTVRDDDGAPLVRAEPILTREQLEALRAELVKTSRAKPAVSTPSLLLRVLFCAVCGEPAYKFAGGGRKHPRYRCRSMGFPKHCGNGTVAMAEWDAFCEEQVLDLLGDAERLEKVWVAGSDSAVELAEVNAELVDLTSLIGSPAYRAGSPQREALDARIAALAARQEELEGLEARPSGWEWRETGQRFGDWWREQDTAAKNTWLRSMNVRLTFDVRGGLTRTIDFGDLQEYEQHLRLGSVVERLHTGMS
Protocol: Cells were maintained at 37° C. and 5% CO₂ in DMEM supplemented with 10% fetal bovine serum and 1% penicillin/streptomycin (obtained from Invitrogen, Carlsbad, Calif.) or in other media as indicated. On the day of transfection, cells were plated at different densities depending on the cell type used. The cells were transfected with intramolecular recombination assay plasmid alone or along with varying amounts of recombinase expression plasmid DNA using Lipofectamine 2000™ according to the manufacturers instructions (Invitrogen, Carlsbad, Calif.). Constitutively expressed Renilla luciferase reporter plasmid (pRL-CMV from Promega, Madison, Wis.) was co-transfected (2 ng/well) and used as an internal control to normalize the data. Twenty-four or forty-eight hours after transfection (depending on the cell line), media was discarded and cells were lysed with passive lysis buffer (Promega, Madison, Wis.). Extracts were then assayed using Dual Luciferase Assay kit (Promega, Madison, Wis.) on a plate reader equipped with injectors (Dynex Technologies, Chantilly, Va.). The data shown are the ratios of luciferase (Luc) and Renilla luciferase (RLuc) activities, unless noted otherwise. Similar results were observed when Luc activities (relative light units) were compared (data not shown). […]

A118 recombinase [1] = molecular target: T2, A118 recombinase (Listeria monocytogenes phage A118); assay: cell_activity; attP x attB recombination with N8, tobacco BY2 protoplasts; also active in mammalian cells
T2 chain: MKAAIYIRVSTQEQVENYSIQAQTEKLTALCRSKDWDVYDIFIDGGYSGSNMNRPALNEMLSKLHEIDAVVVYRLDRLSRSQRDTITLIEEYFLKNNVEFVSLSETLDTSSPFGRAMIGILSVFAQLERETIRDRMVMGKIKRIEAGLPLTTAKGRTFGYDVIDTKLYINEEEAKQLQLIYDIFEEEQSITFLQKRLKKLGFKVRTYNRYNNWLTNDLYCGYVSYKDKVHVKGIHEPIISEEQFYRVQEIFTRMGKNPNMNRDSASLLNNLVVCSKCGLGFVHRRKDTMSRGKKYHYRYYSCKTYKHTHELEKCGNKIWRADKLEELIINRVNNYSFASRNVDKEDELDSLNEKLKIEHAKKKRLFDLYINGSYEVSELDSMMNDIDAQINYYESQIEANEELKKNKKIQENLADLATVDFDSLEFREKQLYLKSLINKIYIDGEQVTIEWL
Protocol: (§1) Cell suspension cultures of Nicotiana tobacum BY2 were maintained in MS medium in the dark and subcultured weekly (Nagata, T., T. Nemoto, and S. Hasezawa. 1992. Tobacco BY-2 cell line as the Hela cell in the cell biology of higher plants. Intl. Rev. Cytol., 132:1-30). Protoplasts prepared from 3 day-old cultures were resuspended in 0.4 M mannitol and distributed into 35 mm petri dishes in 1 mL aliquots (˜5×10⁵ cells). Protoplasts were mixed with plasmid DNA and electroporated at 0.56 K Volts for 80μ seconds using a square wave electroporation system with Petripulser electrode (BTX, San Diego, Calif., USA). The cells were transfected with 10 μg for the intramolecular recombination test plasmid and 0 or 10 μg for the recombinase expression plasmid. Following the electroporation, protoplasts were diluted with 1 mL of 2× protoplast culture medium (Watanabe, Y., T. Meshi, and Y. Okada. 1987. Infection of tobacco protoplasts with in vitro transcribed tobacco mosaic virus RNA using an improved electroporation method. Virology, 192:264-272), aliquotted as two 1 mL cultures, and incubated at 27° C. for 17 h. Protoplasts were lysed by freeze thawing and addition of 250 μL 5× passive lysis buffer (Promega, Madison, Wis., USA). Twenty μL of cell extract was assayed for luciferase activity using Dual Luciferase Assay kit on a plate reader equipped with injectors. […]

A118 recombinase [2] = molecular target: T2, A118 recombinase; assay: cell_activity; partner of N7, tobacco BY2 protoplasts; chromosomal integration also seen (Tables 1-2)
Protocol: as §1

B1: Bxb1 attB (dsDNA)
DNA 1: GGCCGGCTTGTCGACGACGGCGGTCTCCGTCGTCAGGATCATCCGG
DNA 2: CCGGATGATCCTGACGACGGAGACCGCCGTCGTCGACAAGCCGGCC
Question: How did the activity (Bxb1 recombinase) turn out when B1 was run?
Answer: 66 fold induction

B2: A118 attP (dsDNA)
DNA 1: ACGCTAGTAGCTTGTTTATTTAGATTGTTTAGTTCCTCGTTTTCTCTCGTTGGAAGAAGAAGAAACGAGAAACTAAAATTATAAATAAAAAGTAACCTA
DNA 2: TAGGTTACTTTTTATTTATAATTTTAGTTTCTCGTTTCTTCTTCTTCCAACGAGAGAAAACGAGGAACTAAACAATCTAAATAAACAAGCTACTAGCGT
Question: B2 was tested. Which activity (A118 recombinase [1]) did it give?
Answer: 364 fold induction

B3: A118 attB (dsDNA)
DNA 1: TTGAGCTAATTAAAACCAGCTGTAACTTTTTCGGATCAAGCTATGAAGGACGCAAAGAGGGAACTAAACACTTAATTGGTGTTACCCATAAGCCAC
DNA 2: GTGGCTTATGGGTAACACCAATTAAGTGTTTAGTTCCCTCTTTGCGTCCTTCATAGCTTGATCCGAAAAAGTTACAGCTGGTTTTAATTAGCTCAA
Question: With B3 as the binder, how does the activity (A118 recombinase [2]) read?
Answer: 364 fold induction
